# Biological target: Alpha RBD
Binder,Kd [nM],T1/2 [min],koff [s⁻¹],kon [M⁻¹ s⁻¹]
"C5 trimer (VHH, also called trimeric C5 nanobody; C5-6GS-C5-6GS-C5) QVQLVESGGGSVQAGGSLTLSCVASGVTLGRHAIGWFRQAPGKERERVSCIRTFDGITSYVESTKGRFTISSNNAMNTVYLQMNSLKPEDTAVYFCALGVTAACSDNPYFWGQGTQVTVSSGSGSGSQVQLVESGGGSVQAGGSLTLSCVASGVTLGRHAIGWFRQAPGKERERVSCIRTFDGITSYVESTKGRFTISSNNAMNTVYLQMNSLKPEDTAVYFCALGVTAACSDNPYFWGQGTQVTVSSGSGSGSQVQLVESGGGSVQAGGSLTLSCVASGVTLGRHAIGWFRQAPGKERERVSCIRTFDGITSYVESTKGRFTISSNNAMNTVYLQMNSLKPEDTAVYFCALGVTAACSDNPYFWGQGTQVTVSS",0.029,41,–,–
H3 trimer (VHH) QVQLVESGGGLVKTGGSLRLSCAASGRTFSTYSMGWFRQAPGKEREFVAGMRWTGSSTFYSDSVKGRFTVSRNNAKDTVYLHMNSLKPEDTAVYYCAITTIVRAYYTEYTEADFGSWGQGTQVTVSSGAVLAPQVQLVESGGGLVKTGGSLRLSCAASGRTFSTYSMGWFRQAPGKEREFVAGMRWTGSSTFYSDSVKGRFTVSRNNAKDTVYLHMNSLKPEDTAVYYCAITTIVRAYYTEYTEADFGSWGQGTQVTVSSGSGSGSQVQLVESGGGLVKTGGSLRLSCAASGRTFSTYSMGWFRQAPGKEREFVAGMRWTGSSTFYSDSVKGRFTVSRNNAKDTVYLHMNSLKPEDTAVYYCAITTIVRAYYTEYTEADFGSWGQGTQVTVSS,0.006,98,0.00012,1.8e+07
C1 trimer (VHH) QVQLVESGGGLVQPGGSLRLSCAASGFTNDFYSIAWFRQAPGKEREGVSWLSVSDNTPTYVDSVKDRFTISRHNANNTVYLQMNMLKPEDTAIYYCAAGRFAGRDTWPSSYDYWGQGTQVTVSSGSGSGSQVQLVESGGGLVQPGGSLRLSCAASGFTNDFYSIAWFRQAPGKEREGVSWLSVSDNTPTYVDSVKDRFTISRHNANNTVYLQMNMLKPEDTAIYYCAAGRFAGRDTWPSSYDYWGQGTQVTVSSGSGSGSQVQLVESGGGLVQPGGSLRLSCAASGFTNDFYSIAWFRQAPGKEREGVSWLSVSDNTPTYVDSVKDRFTISRHNANNTVYLQMNMLKPEDTAIYYCAAGRFAGRDTWPSSYDYWGQGTQVTVSS,0.073,154,7.4e-05,1e+06

# Biological target: Alpha RBD
# Remark: another data set of the same source
Binder,Kd [nM],T1/2 [min]
C1 (VHH) VHH: QVQLVESGGGLVQPGGSLRLSCAASGFTNDFYSIAWFRQAPGKEREGVSWLSVSDNTPTYVDSVKDRFTISRHNANNTVYLQMNMLKPEDTAIYYCAAGRFAGRDTWPSSYDYWGQGTQVTVSS,0.725,21
"C5 (VHH, also called VHH C5) VHH: QVQLVESGGGSVQAGGSLTLSCVASGVTLGRHAIGWFRQAPGKERERVSCIRTFDGITSYVESTKGRFTISSNNAMNTVYLQMNSLKPEDTAVYFCALGVTAACSDNPYFWGQGTQVTVSS",2.52,1
H3 (VHH) VHH: QVQLVESGGGLVKTGGSLRLSCAASGRTFSTYSMGWFRQAPGKEREFVAGMRWTGSSTFYSDSVKGRFTVSRNNAKDTVYLHMNSLKPEDTAVYYCAITTIVRAYYTEYTEADFGSWGQGTQVTVSS,0.102,10
"F2 (VHH, also called VHH F2) VHH: QVQLVESGGGLVQAGGSLRLACIASGRTFHSYVMAWFRQAPGKEREFVAAISWSSTPTYYGESVKGRFTISRDNAKNTVYLQMNRLKPEDTAVYFCAADRGESYYYTRPTEYEFWGQGTQVTVSS",0.047,51

# From patent US20230374116A1 (ROSALIND FRANKLIN INSTITUTE, published 2023)
